{"source": "paper PMC3990580", "key": {"[1]": {"molecular_target": "Q223R extracellular murine leptin receptor Fc (LepRec-Fc) chimera (murine) (UniProt P48356)", "test": "SPR; BiaCore T200, CM5 chip; anti-mouse IgG1 amine-coupled (~2000 RU) captures LepRec-Fc from the concentrated supernatant (100-300 RU); leptin 1.25-60 nM as analyte; 25°C, HBS-EP buffer, 30 µl/min; 600 s association, 1000 s dissociation; global 1:1 Langmuir fit; mean of two experiments"}, "[2]": {"molecular_target": "WT extracellular murine leptin receptor Fc (LepRec-Fc) chimera (murine) (UniProt P48356)", "test": "SPR; BiaCore T200, CM5 chip; anti-mouse IgG1 amine-coupled (~2000 RU) captures LepRec-Fc from the concentrated supernatant (100-300 RU); leptin 1.25-60 nM as analyte; 25°C, HBS-EP buffer, 30 µl/min; 600 s association, 1000 s dissociation; global 1:1 Langmuir fit; mean of two experiments"}}, "data": [{"substance": "Recombinant murine leptin (from UniProt P41160 22-167) (ligand)", "values": [{"measurement": "Kd", "setting": "[1]", "result": 0.0843, "unit": "nM"}, {"measurement": "koff", "setting": "[1]", "result": 0.000147, "unit": "s⁻¹"}, {"measurement": "kon", "setting": "[1]", "result": "1.75e+06", "unit": "M⁻¹ s⁻¹"}, {"measurement": "Kd", "setting": "[2]", "result": 0.0647, "unit": "nM"}, {"measurement": "koff", "setting": "[2]", "result": 0.000121, "unit": "s⁻¹"}, {"measurement": "kon", "setting": "[2]", "result": "1.76e+06", "unit": "M⁻¹ s⁻¹"}]}]}
